Measured values from the nanobody polyreactivity screen of Harvey et al. (2022).

Assay: yeast display, Sf9 membrane polyspecificity reagent, FACS + sequencing; frameworks hold sequencing errors
Summary of the method: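 A nanobody's polyreactivity label depends on the gate it was sorted from. Yeast display cells were stained with 10% biotinylated, detergent-solubilized Sf9 membrane reagent for 1 hour at 4 °C, enriched on streptavidin microbeads and sorted by FACS. The low and high (top ~1%) gates were set on anti-HA fluorescence for expression and streptavidin fluorescence for reagent binding.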

Sequence	polyreactivity (PSR sort gate)
QVQLVESGVGLVQAGGSLRISCAASGRIYRSNAMGWYRQAPGKERELLAAISSNGGSTYYADSVKGRFTISRDNAKNTVYLQMNSLKPEDTAVYYCAARVYYPVRYGYWGQGTQVSVSS	high polyreactivity
QVQLVESGGGLVHAGGSLRLSCDASGITFGPYGMGWYRQAHGKEREFVATITTIGGITYYADSVKGRFTISRDNAKNTFYLQMNSLKPEDTAVYYCAAPWFHGYDALVDYWGQGTQVTVSS	low polyreactivity
EVQLVESGGGLVQPGGSLRLSCASSGYIYRRYRMGRYRQAPGKGREFVAAISGGSSTNYADSVKGRFTISRDNSKNTLYLQMKSLRAEDTAVYYCEGYKIDSDPRVYWGQGTQVTVSS	low polyreactivity
QVQLVESGGGLVQAGGSLRLSCAASGRIFYHYAMGWYRQAPGKERELVAAITSSGAGTYYADSVKGRFTISRDNAKNTVYLPMNSLKPEDTAVYYCAARRYAWLHSYDMYYWGHGTQVTVSS	high polyreactivity
QVQLVESGGGLDQAGGSLRLSCAASGSIFMPNAMGWYRQAPGKERELVAAISASTSSTYYADSVKGRFTISRDNAKNTVYLEMNSLKPEDTGVYYCAAYYVFFYLEDVYYEYDYWGQGTQVTVSS	high polyreactivity
QVQLVESGGGLVHAGGSLRLSCAASGSIFTWNGMGWYRQAPGKERELVAGMSYSGGITYTDSVKGRFTISRDNAKNTVYLQMNSLKPEDTAVYYCNARSKVAYYRHYYWGQGTQVTVSS	low polyreactivity
QVQLVESGGGLVQAGGSLRLSCAASGSTFFSYAMGWYRQAPGKERELVAAISWIDDGTYYADSVKGRFTISRDNAKNTVYLQMNSLKPEDTAVYYCAATKFWYYGYDYWGQGTQVTVSS	low polyreactivity
QVQLVESGGGLVQAGGSLRLSCAASGFIFWLYAMGRYRQAPGKERELVAAISNGGSTNYADSVKGRFTISRDNAKNTVYLQMNSLKPEDTAVYYCAAKFPRRFYWYDYWGQGTQVTVSS	high polyreactivity
QVQLVESGGGLFQAGGSLRLSCAASGFTSLWYGIGWYRPAPGKERELVAAITSDSSTYYADSVKGRFTISRDNAKNTVYLQMYSLKPQDTAVYSCAKYFVYVGYGRYAFWGQGTQVTVSS	low polyreactivity
QVQLVESGGGLVQAGGSLRLSCAASGITFRRNAMGWYRQAQGKESQLVAAITSRGGSTYYADSVKWRFTISRDNAKNTVYLQMISMKPEDTAVYYCNAGGVDRVDRDYWGQGTQVTVSS	high polyreactivity
QVQLVESGGGLVQAGGSLRLSCAASGRTFRLNVMGWYRQAPGKERELVATISWSGGTTYYADSVKGRFTISRDNAKNTVYFQMNCLKPEDTAVYYCNRQVTWYPTGGYWGQGTQVTVSS	low polyreactivity
QVQLVESGGGLVQAGGSLRLSCAASGGIFGRYAMGWYRQAPGKERELVAGLSYSGGSTYYADSVKGRFTISRDNEKNTVYLQMTSLKAEDTAVYYCAADTRRTYENYYWGQGTQVTVSS	high polyreactivity
QVQLVESGGGLVQAGGSLRLSCAASGRIFNTYAMGWYRQAPGKERELVAAISWRGVSTYYADSVKGRFTISRDNAKNTVYLQMNSLKAEDTAVYYCAALPFWWGGYWGQGTQVTVSS	high polyreactivity
QVQLVESGGGLVQAGGSLRLSCAASGFTFRKYAMGWYRQAPGKERELVAAISSSGTSTYYADSVKGRFTISRDNAKNTVYLQMNSLKPEDTAVYYCAADRYYWGRYTLNYWGQGTQVTVSS	low polyreactivity
QVQLVESGGGLVQAGVSLRLSCAASGSTFTYNAMGWYRQAPGKERELVAAISYGGGRTYYADSVKGRFTISRDNAKNTVYLLMNSLKPEDTAVYYCNRYRYSYVEFDYWGQGTQVTVSS	high polyreactivity
QVQLVESGGGLVQAGGSLRLSCAASGFIFYYYAMGWYRQAPGKERELVAVLAVSGSSTYYADSEKGRFTISRDNAKNIVFLQKNSLKPEDTAVYYCNADFWPYTGKYDYWGQGTQVTVSS	low polyreactivity

Sequence	polyreactivity (PSR sort gate)
QVQLVESGGGLVQAGGSLRLSCAASGSTFFLKAMGWYRQSPGKERELVAAISYSDSGTNYADSVKGRFTISRDNAKNTVYLQMNSLKPEDTAVYYCATAVRPWYVTSGNYWGQGTQVTVSS	low polyreactivity
QLQLVESRGGLVQAGGSLRLSCAASGRIFFSNPMGWYIQAPGKDRELVASMTGGDDTNYADSVKGRFTISRDNAKNTVYLQMNSLKPEDTAVYYCAARAIPSYRWVYRFAPQYDYWGQGTQVTVSS	low polyreactivity
QVQLVESGAGLVQAGGSLRLSCAASGLTFRSYAMGWYRQAPGKERELVAAITRSGGSTYYADSVKGRFTISRDNAKNTVYLQMNSLKPEDTAVYYCAARYKGNPDRYGYWGQGTQVTVSS	high polyreactivity
QVQLVESGGGLVQAGGSLRLSCAASGRTFGSNAMGWYRQAPGKERELVANIDGGGGTYADSVKGRFTISRDNAKNTVYLQMNSLKPEDTAVYYCATRWSGYDMDYWGQGTQVTVSS	low polyreactivity
QVQLVESWGGLVQARGRLRLSFAASGSTYQNAMRCYRQAPGKEREFVAAISWSGGSTYYGDSVKGRFTISRDNAKNTVYLQMNSLKPEDTAVYYCAAYSYFSPWYDYWGQGTQVTVSS	high polyreactivity
QVQLVESGGGLVQAGGSLRLSSAASGSNFPTNAMGWYRQAPGKETELVAAITDGGSTNYADSVKGRFTISRDNAKNTVYLQMNSLKPEDTAVYYCAAVGFKTVLPEYDYWGKGTQVTVSS	low polyreactivity
QVQLVESGGGLVQAGGSLRLSCAASGRIFTYYAMGWYRQAPGKERELVAAITSRGGRTYYADSVKGRFTISRDNAKNTVYLQMNSLKPEDTAVYYCNVDRWRRTISHDIYGYWGQGTQVTVSS	high polyreactivity
QVRLVESGGGLVKAGGSLRLSSAASGSTFWSYAMGCYRQATGKERELVAAISWSGDSTYYADSVKGRFTISRDNAKNTVYLQMNSLKPEDTAVYYCAADYVGGSYEYEYWGQGTQVTVSS	low polyreactivity
QVQLVESGGGLVQAGGSLRLSCAASGRIFYSYAMGWYRQAPGKERELVATISSAGSTYYADSVKGRFTISRDNAKNTVYLQMNSLKPEDTAVYYCAARRPRRYGFWGQGTQVTVSS	high polyreactivity
QVQLVESGGGLVQAGGSLRLSCAASGSTFTYNDMGWYRPAPGKERELVATIDSTTRTYYADSVKGRFTISRDNAKNSVYLQMNCLKPEDTAVYYCAADLTWAYFYYLFYRYDYWGQGTKVTVSS	low polyreactivity
QVQLVESCGGLVQAGGSLRLSCAASGSTFYLNAMGWYRQAPGKERELVAAIDYRGGSTYYADSVKGRFTISRDYAKNTVYLQMNSLKPEDTAVYYCAKDRPGFLVGWGGGYDYWGQGTQVTVSS	low polyreactivity
QVQLVESGGGLVQAGGSLRLSCAASGSTFRTYSMGWYRQAPGKEREWVASITSSGASTYYADSVKGRFTISRDNAKNTVYLQMNSLKPEDTAVYYCAKGYPWYYRYKYDSWGQGTQVTVSS	high polyreactivity
QVQLVESGGGLVQAGGSLRLSCAASGFTFRIYAMGWYRQAPGKERELVAAISWAGGSTFYADSVKGRFTISRDNAKNTVYLQMNSLKPEDTAVYYCAADYGYFEYDYWGQGTQVTVSS	low polyreactivity
QVQLVESGGGLVQAGGSLRLSCAASGNIFYAYDMGWYRQAPGKERELVAAITNGDSTDYADSVKGRFTISRDNAKNTVYLQMNSLKPEDTAVYYCATDIHSVHNNRDKHDYDYWGQGTQVTVSS	low polyreactivity
QVQLVESGGGLVQAGGSLRLSCAASGRIFGGYVMGWYRQAPGKERELVAAINGGGGSTYYADSVKGRFTISRDNAKNTVYLQMNSLKPEDTAVYYCMLVKRSQRKSTIDFDYWGQGTQVTVSS	high polyreactivity
QDQLVESGGGLVQAGGSLRLTCAASGFTFRRNAMGWYRQAPGKERELVAAISSRGGSTYYADSVKGRFTISRDNAKNTVYLQMNSLKPEDTAVYYCAAYYVPWGTLYHLDYWGQGTQVTVSS	high polyreactivity
